These are literature values, as cited in paper PMC4443854.

One may read the Kd as the constant that tells how readily two partners part at equilibrium.

The target of this data set is actin filaments (F-actin) (Oryctolagus cuniculus) (UniProt P68135).

In the case of AIP1 (from UniProt O75083), the Kd was 2500 nM.
